Assay [1] addresses C1ND (recombinant human CEACAM1 N-domain, residues 35-142, C-terminal Strep-Tag II, made in Expi293 cells) (human) (UniProt P13688). The experiment in a line: ELISA, C1ND coated, HopQ fragments titrated. (ELISA stands for enzyme-linked immunosorbent assay.)
Assay [2] has the same target. The experiment in a line: isothermal titration calorimetry, HopQ^AD titration with C1ND, 25 °C, 1:1 stoichiometry. (In general: Isothermal titration calorimetry measures the heat released or taken up as one component is titrated into another.)

As to “HopQ^ADΔID (HopQ^AD in which amino acids 190-218 of the mature protein are replaced by two glycines)”, in assay [1], the fold reduction of CEACAM1 binding affinity against HopQ^AD is 10 fold. “HopQ^AD (HopQ adhesin domain; soluble HopQ type I fragment of H. pylori strain G27, residues 37-463, C-terminal 6x His-tag)”: in assay [2], the dissociation constant (Kd) was determined as 296 nM.

In general, Kd refers to the concentration at which binding is half-saturated.

These data come from patent publication US20230087805A1.
